Assay results taken from CN107987163A (HANGZHOU SHANGJIAN BIOTECHNOLOGY CO LTD, dated 2018).

Columns and labels:
BSA (BOVOGEN) = BSA (BOVOGEN) (UniProt P02769 25-607); assay: ELISA, protein coated at 1μg/ml, goat anti-human IgG-HRP detection
[1] = target: T1, A549细胞表面AXL (AXL on the surface of A549 cells) (UniProt P30530 26-894, limits assumed); assay: flow cytometry on A549 cells, 9A diluted to 20μg/ml, PE mouse anti-human IgG detection
T1 construct: whole, on cells; also called 细胞表面抗原
T1 sequence (looked up): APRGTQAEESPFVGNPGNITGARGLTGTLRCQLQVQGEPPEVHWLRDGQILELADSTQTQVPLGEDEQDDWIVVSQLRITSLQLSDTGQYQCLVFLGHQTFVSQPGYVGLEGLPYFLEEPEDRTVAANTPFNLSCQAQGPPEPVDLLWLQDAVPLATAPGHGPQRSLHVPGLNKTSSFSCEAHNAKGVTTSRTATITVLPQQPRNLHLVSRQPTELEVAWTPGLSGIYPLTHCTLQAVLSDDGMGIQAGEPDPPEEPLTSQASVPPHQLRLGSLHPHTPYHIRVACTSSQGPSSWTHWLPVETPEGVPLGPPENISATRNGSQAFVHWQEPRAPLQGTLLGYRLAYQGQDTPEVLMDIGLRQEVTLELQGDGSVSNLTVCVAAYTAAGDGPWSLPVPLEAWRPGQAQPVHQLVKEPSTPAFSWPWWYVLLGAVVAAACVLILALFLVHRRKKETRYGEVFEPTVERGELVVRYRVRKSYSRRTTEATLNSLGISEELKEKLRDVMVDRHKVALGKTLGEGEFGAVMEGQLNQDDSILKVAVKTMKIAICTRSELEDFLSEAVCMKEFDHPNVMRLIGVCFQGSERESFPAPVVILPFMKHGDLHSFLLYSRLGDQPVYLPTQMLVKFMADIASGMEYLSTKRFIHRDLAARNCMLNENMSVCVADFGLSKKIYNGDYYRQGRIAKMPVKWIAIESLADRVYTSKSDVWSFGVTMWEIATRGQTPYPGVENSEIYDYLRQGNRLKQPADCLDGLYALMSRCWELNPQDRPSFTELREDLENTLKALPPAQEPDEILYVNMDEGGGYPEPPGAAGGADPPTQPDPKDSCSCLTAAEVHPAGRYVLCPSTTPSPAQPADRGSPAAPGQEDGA

[2] = target: T2, AXL-Fc (人AXL蛋白胞外段-人IgG1Fc段融合蛋白) (human, UniProt P30530 26-451); assay: ELISA, AXL-Fc coated at 1μg/ml, antibody titrated, goat anti-human IgG (Fab')2-HRP detection
T2 construct: extracellular domain; Expressed in CHO-K1 cells; also called 靶抗原AXL-Fc; 抗原AXL-Fc
T2 sequence (looked up): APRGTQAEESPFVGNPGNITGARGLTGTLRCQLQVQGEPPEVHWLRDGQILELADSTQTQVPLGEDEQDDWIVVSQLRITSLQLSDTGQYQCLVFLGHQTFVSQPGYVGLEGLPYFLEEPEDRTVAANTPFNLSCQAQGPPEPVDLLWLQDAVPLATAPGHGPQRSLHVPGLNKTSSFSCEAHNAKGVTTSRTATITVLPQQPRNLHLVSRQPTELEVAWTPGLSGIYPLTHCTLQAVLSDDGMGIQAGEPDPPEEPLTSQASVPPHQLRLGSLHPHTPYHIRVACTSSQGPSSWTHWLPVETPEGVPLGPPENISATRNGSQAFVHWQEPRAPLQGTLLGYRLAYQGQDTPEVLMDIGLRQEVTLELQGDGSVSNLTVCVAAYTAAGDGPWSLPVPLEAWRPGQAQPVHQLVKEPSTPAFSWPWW

Chain of BSA (BOVOGEN) (P02769 25-607 limits assumed): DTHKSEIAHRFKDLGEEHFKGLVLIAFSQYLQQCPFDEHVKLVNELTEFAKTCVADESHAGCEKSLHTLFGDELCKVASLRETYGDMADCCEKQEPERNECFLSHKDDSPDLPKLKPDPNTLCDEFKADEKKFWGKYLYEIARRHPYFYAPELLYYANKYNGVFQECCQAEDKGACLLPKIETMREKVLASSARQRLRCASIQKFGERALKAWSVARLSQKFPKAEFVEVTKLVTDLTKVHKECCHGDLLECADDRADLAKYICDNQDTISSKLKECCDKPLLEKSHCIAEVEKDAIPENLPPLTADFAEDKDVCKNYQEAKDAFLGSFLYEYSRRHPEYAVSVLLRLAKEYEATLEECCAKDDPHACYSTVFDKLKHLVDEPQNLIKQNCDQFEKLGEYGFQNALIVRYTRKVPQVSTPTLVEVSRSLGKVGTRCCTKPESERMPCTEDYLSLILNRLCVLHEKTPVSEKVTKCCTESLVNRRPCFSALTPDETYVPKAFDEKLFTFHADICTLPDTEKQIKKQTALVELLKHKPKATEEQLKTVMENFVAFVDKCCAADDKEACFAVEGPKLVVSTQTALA

B1: 9A抗体 (full antibody 9A, anti-AXL monoclonal antibody) (antibody, human IgG1, kappa, V domains shown)
VH: QVQLVQSGAEVKKPGSSVKVSCKASGGTFSSYAISWVRQAPGQGLEWMGGIIPIFGTANYAQKFQGRATITADESTSTAYMELSSLRSEDTAVYYCARAYYDFWSGYEPWGQGTLVTVSS
VL: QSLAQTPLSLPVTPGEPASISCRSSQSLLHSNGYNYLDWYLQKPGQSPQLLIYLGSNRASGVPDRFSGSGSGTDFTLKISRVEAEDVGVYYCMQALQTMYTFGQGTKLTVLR
notes: also called 单克隆抗体9A; 全抗体
- binding result (BSA (BOVOGEN)): no binding
- binding result [1]: binds
- binding result [2]: binds
